Publication PMC8287531 (The Journal of Cell Biology, 2021)

B1: lamellipodin(20-46) peptide (peptide)
peptide: EDQDLDKMFGAWLGELDRLTQSLDSDKC
modifications: coupled with either a fluorescein or BODIPY-TMR dye (which one is not stated for this peptide)
notes: Lamellipodin residues 20-46; added C-terminal cysteine residue; source: synthetic peptide (GLBiochem, Shanghai)
B2: KANK1(30-60) peptide, KN domain LD motif, BODIPY-labeled (peptide)
peptide: PYFVETPYGFQLDLDFVKYVDDIQKGNTIKKC
modifications: BODIPY-labeled
notes: KANK1 KN domain LD motif, residues 30-60; added C-terminal cysteine residue; also called KANK1 KN domain LD motif (residues 30-60); source: synthetic peptide (GLBiochem, Shanghai)

Experiments:
[1] = molecular target: T1, TLNRD1 four-helix domain (TLNRD1-4H, residues 143-273) (human, UniProt Q9H1K6 143-273); test: fluorescence polarisation; serial dilution of protein against 100 nM fluorescein- or BODIPY-TMR-coupled peptide; 20°C; one-site total binding equation; triplicate; conditions: both partners purified
T1 construct: Human TLNRD1 four-helix domain, residues 143-273, sub-cloned into pET151; Density was traced for residues 148-270 in PDB 6XZ3; also called 4H domain
T1 sequence (Q9H1K6 143-273): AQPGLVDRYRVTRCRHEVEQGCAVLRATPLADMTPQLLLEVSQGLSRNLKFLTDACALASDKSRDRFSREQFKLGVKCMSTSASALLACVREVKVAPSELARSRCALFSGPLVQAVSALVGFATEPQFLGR

talin R7R8 rod domains = molecular target: T2, talin R7R8 rod domains (UniProt Q9Y490 1359-1659); test: as above; conditions: both partners purified
T2 construct: Talin R7R8 rod domains; the construct used in the assays is not described in the methods
T2 sequence (Q9Y490 1359-1659): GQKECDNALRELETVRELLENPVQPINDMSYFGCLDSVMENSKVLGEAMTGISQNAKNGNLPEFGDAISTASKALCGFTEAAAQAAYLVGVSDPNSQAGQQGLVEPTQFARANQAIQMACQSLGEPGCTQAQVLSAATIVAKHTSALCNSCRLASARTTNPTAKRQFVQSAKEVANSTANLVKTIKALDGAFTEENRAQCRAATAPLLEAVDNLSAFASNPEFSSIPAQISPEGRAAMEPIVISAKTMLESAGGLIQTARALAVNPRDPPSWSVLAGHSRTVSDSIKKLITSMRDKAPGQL

Binder	Kd [1] [µM]	Kd (talin R7R8 rod domains) [µM]
B1	9	–
B2	–	0.35
